What was measured:
[1] = biological target: PARP1 WT (UniProt P09874 1-1014); experiment: fluorescence polarization; without HPF1; Kd only in Fig. 6f; SPR: 25 mM HEPES pH 7.4, 250 mM NaCl, 0.1 mM TCEP, 1 mM EDTA, 0.05% Tween20 (+/- 5 uM EB47); FP: 5 nM probe, 1.56-400 nM PARP1, buffer not stated; HXMS: 10 mM HEPES pD 7.0, 150 mM NaCl, RT; details: protein: recombinant; tags: N-terminal His6; label: internal FAM (GCTGAGC FAM-TTCTGG...); dumbbell, two hairpins, central nick
[2] = biological target: PARP1 WT;HPF1 (human?;human, UniProt P09874;Q9NWY4 1-1014;1-346, |); experiment: fluorescence polarization; 20 uM HPF1; P=0.014; SPR: 25 mM HEPES pH 7.4, 250 mM NaCl, 0.1 mM TCEP, 1 mM EDTA, 0.05% Tween20 (+/- 5 uM EB47); FP: 5 nM probe, 1.56-400 nM PARP1, buffer not stated; HXMS: 10 mM HEPES pD 7.0, 150 mM NaCl, RT; details: protein: recombinant;recombinant; tags: N-terminal His6;none (SMT sumo-like His-tag removed with ULP1); copies: 1;1; label: internal FAM (GCTGAGC FAM-TTCTGG...); dumbbell, two hairpins, central nick
[3] = biological target: PARP1 R865A (UniProt P09874 1-1014, R865A); experiment: fluorescence polarization; without HPF1; P=0.000039; SPR: 25 mM HEPES pH 7.4, 250 mM NaCl, 0.1 mM TCEP, 1 mM EDTA, 0.05% Tween20 (+/- 5 uM EB47); FP: 5 nM probe, 1.56-400 nM PARP1, buffer not stated; HXMS: 10 mM HEPES pD 7.0, 150 mM NaCl, RT; details: protein: recombinant; tags: N-terminal His6; label: internal FAM (GCTGAGC FAM-TTCTGG...); dumbbell, two hairpins, central nick
[4] = biological target: PARP1 R865A;HPF1 (human?;human, UniProt P09874;Q9NWY4 1-1014;1-346, R865A|); experiment: fluorescence polarization; 20 uM HPF1; no further increase vs R865A alone (P=0.087, ns); SPR: 25 mM HEPES pH 7.4, 250 mM NaCl, 0.1 mM TCEP, 1 mM EDTA, 0.05% Tween20 (+/- 5 uM EB47); FP: 5 nM probe, 1.56-400 nM PARP1, buffer not stated; HXMS: 10 mM HEPES pD 7.0, 150 mM NaCl, RT; details: protein: recombinant;recombinant; tags: N-terminal His6;none (SMT sumo-like His-tag removed with ULP1); copies: 1;1; label: internal FAM (GCTGAGC FAM-TTCTGG...); dumbbell, two hairpins, central nick
Sequence of PARP1 R865A;HPF1 (P09874 whole entry R865A, chain 1 of 2): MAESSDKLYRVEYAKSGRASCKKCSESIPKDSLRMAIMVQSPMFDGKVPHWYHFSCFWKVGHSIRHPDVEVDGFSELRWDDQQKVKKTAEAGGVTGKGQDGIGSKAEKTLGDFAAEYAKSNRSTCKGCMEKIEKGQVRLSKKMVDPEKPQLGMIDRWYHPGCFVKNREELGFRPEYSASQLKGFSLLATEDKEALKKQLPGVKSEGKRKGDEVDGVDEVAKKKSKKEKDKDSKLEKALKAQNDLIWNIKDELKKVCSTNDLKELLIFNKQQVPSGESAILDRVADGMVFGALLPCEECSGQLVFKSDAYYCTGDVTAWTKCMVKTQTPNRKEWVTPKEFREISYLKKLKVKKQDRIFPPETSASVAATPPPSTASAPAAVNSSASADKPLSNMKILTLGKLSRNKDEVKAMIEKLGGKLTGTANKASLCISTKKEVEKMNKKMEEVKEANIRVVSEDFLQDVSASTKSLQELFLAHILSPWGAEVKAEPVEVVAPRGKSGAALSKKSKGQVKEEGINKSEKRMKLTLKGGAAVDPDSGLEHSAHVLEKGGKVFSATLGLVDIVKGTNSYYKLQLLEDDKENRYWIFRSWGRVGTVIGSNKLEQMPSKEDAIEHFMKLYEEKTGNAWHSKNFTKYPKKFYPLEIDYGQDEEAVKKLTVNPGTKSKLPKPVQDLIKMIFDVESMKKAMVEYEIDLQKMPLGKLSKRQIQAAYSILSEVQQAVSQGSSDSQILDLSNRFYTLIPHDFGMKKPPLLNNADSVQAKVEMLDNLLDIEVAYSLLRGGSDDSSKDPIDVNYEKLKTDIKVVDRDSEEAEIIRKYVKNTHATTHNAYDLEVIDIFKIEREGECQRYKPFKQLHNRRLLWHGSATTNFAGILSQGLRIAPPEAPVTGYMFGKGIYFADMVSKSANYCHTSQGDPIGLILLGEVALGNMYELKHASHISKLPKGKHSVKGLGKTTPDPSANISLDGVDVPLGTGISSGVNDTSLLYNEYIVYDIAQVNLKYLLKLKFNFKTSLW
Sequence of PARP1 R865A;HPF1 (Q9NWY4 whole entry, chain 2 of 2): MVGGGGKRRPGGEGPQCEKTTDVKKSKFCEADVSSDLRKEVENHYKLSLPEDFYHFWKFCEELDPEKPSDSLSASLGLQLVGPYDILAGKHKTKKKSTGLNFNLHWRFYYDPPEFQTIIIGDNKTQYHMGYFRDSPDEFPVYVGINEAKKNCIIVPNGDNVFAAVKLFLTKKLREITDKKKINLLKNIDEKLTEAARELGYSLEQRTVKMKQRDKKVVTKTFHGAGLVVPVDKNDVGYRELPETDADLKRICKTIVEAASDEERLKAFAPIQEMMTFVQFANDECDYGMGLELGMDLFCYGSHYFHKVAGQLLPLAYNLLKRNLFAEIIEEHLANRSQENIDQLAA

Sequence of PARP1 R865A (P09874 whole entry R865A): as the sequence (P09874 whole entry R865A, chain 1 of 2) above
Sequence of PARP1 WT (P09874 whole entry): as the sequence (P09874 whole entry R865A, chain 1 of 2) above, with A865R counted along it
Sequence of PARP1 WT;HPF1 (P09874 whole entry, chain 1 of 2): as the sequence (P09874 whole entry R865A, chain 1 of 2) above, with A865R counted along it
Sequence of PARP1 WT;HPF1 (Q9NWY4 whole entry, chain 2 of 2): as the sequence (Q9NWY4 whole entry, chain 2 of 2) above

Binder: GCTGAGCTTCTGGTGAAGCTCAGCTCGCGGCAGCTGGTGCTGCCGCGA (structured_DNA) [FAM dumbbell with central nick (FP)]
- binding result [1]: binds
- binding signal [2]: ~2 fold higher affinity than PARP1 WT alone
- binding signal [3]: 4 fold higher affinity than PARP1 WT
- binding result [4]: binds

From paper PMC8602370, “HPF1 dynamically controls the PARP1/2 balance between initiating and elongating ADP-ribose modifications”
